Data as given in patent US20230348603A1.

Columns and labels:
Human VSIG4-L-Fc (human) [1] = assay: BLI cross-blocking on hVSIG4-L-Fc, competitor 14C05 first
Human VSIG4-L-Fc (human) [2] = assay: BLI cross-blocking on hVSIG4-L-Fc, competitor 12A12 first

Chain of Human VSIG4-L-Fc (human) (chain, as listed by the source limits assumed): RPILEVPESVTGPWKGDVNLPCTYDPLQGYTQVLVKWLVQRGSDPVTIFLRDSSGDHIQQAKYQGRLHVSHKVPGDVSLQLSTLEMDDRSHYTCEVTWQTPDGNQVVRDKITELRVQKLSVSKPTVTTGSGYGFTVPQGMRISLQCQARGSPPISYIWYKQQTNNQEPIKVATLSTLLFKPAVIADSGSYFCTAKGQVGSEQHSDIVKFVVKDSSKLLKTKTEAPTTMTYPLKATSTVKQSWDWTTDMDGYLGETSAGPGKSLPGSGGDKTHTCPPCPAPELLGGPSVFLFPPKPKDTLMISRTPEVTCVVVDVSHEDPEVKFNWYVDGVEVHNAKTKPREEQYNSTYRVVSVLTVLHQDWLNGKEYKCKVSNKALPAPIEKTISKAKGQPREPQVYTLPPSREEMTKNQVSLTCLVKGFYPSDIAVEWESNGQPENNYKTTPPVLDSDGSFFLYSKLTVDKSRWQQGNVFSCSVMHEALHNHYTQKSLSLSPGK

binding signal (nm shift) (Human VSIG4-L-Fc (human) [1]): 0 nm
binding signal (nm shift) (Human VSIG4-L-Fc (human) [2]): 0 nm
Substance: isotype control antibody (Table 16)
